Measured values taken from patent publication US20180171027A1 (Celldex Therapeutics, Inc., priority 2015, published 2018).
One block for each molecule: values may come before it.

Assays:
ErbB3 [1] = biological target: T1, ErbB3 (Homo sapiens, UniProt P21860); assay: cell-based or functional assay
ErbB3 [2] = biological target: T1, ErbB3
ErbB3 [3] = biological target: T1, ErbB3; assay: ErbB phosphorylation (Theranostics Health platform): ErbB3 activation (pErbB3); type: cell-based; parameters: endogenous in cells; host or cells: SCCHN cell lines (Cal27, FaDu, UNC7, SCC61 and others); conditions: Cal27 cells, similar results in FaDu
Procedure: ErbB phosphorylation was measured using the Theranostics Health platform.

ErbB3 [4] = biological target: T1, ErbB3; assay: cell-based or functional assay; remark: listed apart in the source
ErbB3 [5] = biological target: T1, ErbB3; assay: ErbB3 phosphorylation ELISA, titration of purified NRG proteins on T47D cells; type: cell-based; parameters: endogenous in cells
Procedure: Genes encoding the full extracellular domains of each NRG gene and isoform (NRG1α, NRG1β, NRG2α, and NRG2β) were modified to encode a signal peptide at their 5′ end, in order to induce secretion, and a His-tag at their 3′ end. Constructs were transfected into HEK293 cells and conditioned media was treated with NaCl to a final concentration of 0.5 M. NRG-containing media was purified by NiNTA chromatography and eluted with stepwise increases in imidazole in a phosphate buffer containing 0.5 M NaCl. NRG-containing fractions were pooled and further purified by size-exclusion chromatography with a mobile phase consisting of a phosphate-based buffer with 0.5 M NaCl. Purified NRG proteins were titrated on T47D breast cancer cells (which naturally express all ErbB receptors) for 10 minutes at 37° C. ErbB3 phosphorylation was measured by ELISA.

potency of ErbB3 phosphorylation relative to the other NRG isoforms, T47D cells (ErbB3 [1]): 10 fold | EC50 (read off the curve), ErbB3 phosphorylation in T47D cells (ELISA) [panel B] (ErbB3 [2]): 1 nM
Molecule: NRG1β full extracellular domain, His-tagged (from UniProt Q02297 20-242) (ligand)

activation of ErbB3 (ErbB3 [3]; presence of NRG): blocked activation
Molecule: pertuzumab: anti-ErbB2 monoclonal antibody [reference compound]
inhibiting or blocking EGF-stimulated activation of ErbB3 (ErbB3 [3]; presence of EGF): neither pertuzumab nor 2C2-YTE were capable of inhibiting or blocking

pY-H3 (VeraTag phosphorylated ErbB3), 4213 non-cancerous skin cell line, 2C2-YTE treatment (ErbB3 [4]): 0.6 | pY-H3 (VeraTag phosphorylated ErbB3), 4213 non-cancerous skin cell line, control IgG1 treatment (baseline for 2C2-YTE) (ErbB3 [4]): 0.5 | pY-H3 (VeraTag phosphorylated ErbB3), CAL27 cells, 2C2-YTE treatment (ErbB3 [4]): 0.6 | pY-H3 (VeraTag phosphorylated ErbB3), CAL27 cells, control IgG1 treatment (baseline for 2C2-YTE) (ErbB3 [4]): 4.6 | pY-H3 (VeraTag phosphorylated ErbB3), SCC35 cells, 2C2-YTE treatment (ErbB3 [4]): 0.4 | pY-H3 (VeraTag phosphorylated ErbB3), SCC35 cells, control IgG1 treatment (baseline for 2C2-YTE) (ErbB3 [4]): 1.1 | pY-H3 (VeraTag phosphorylated ErbB3), SCC61 cells, 2C2-YTE treatment (ErbB3 [4]): 0.6 | pY-H3 (VeraTag phosphorylated ErbB3), SCC61 cells, control IgG1 treatment (baseline for 2C2-YTE) (ErbB3 [4]): 6.1 | pY-H3 (VeraTag phosphorylated ErbB3), UNC7 cells, 2C2-YTE treatment (ErbB3 [4]): 0.4 | pY-H3 (VeraTag phosphorylated ErbB3), UNC7 cells, control IgG1 treatment (baseline for 2C2-YTE) (ErbB3 [4]): 3.5 | pY-H3 (VeraTag phosphorylated ErbB3), UNC10 cells, control IgG1/2C2-YTE (one value given) (ErbB3 [4]): 0 | pY-H3 pharmacodynamic (PD) ratio, 4213 non-cancerous skin cell line (ErbB3 [4]): 1 | pY-H3 pharmacodynamic (PD) ratio, CAL27 cells (ErbB3 [4]): 7.5 | pY-H3 pharmacodynamic (PD) ratio, SCC35 cells (ErbB3 [4]): 2.8 | pY-H3 pharmacodynamic (PD) ratio, SCC61 cells (ErbB3 [4]): 10.6 | pY-H3 pharmacodynamic (PD) ratio, UNC7 cells (ErbB3 [4]): 8.4 | pY-H3 pharmacodynamic (PD) ratio, UNC10 cells (ErbB3 [4]): 0
B1: 2C2-YTE anti-HER3 antibody (antibody, human IgG1, V domains shown)
VH: EVQLLESGGGLVQPGGSLRLSCAASGFTFSYYYMQWVRQAPGKGLEWVSYIGSSGGVTNYADSVKGRFTISRDNSKNTLYLQMNSLRAEDTAVYYCARVGLGDAFDIWGQGTMVTVSS
VL: QSVLTQPPSASGTPGQRVTISCSGSLSNIGLNYVSWYQQLPGTAPKLLISRNNQRPSGVPDRFSGSKSGTSASLAISGLRSEDEADYYCAAWDDSPPGEAFGGGTKLTVL

potency of ErbB3 activation relative to the other NRG isoforms (ErbB3 [5]): approximately 10 fold
B2: NRG1β: purified His-tagged full extracellular domain of neuregulin isoform, recombinantly expressed by HEK293 cells (protein, UniProt Q02297 20-242, looked up)
extracellular domain: SGKKPESAAGSQSPALPPRLKEMKSQESAAGSKLVLRCETSSEYSSLRFKWFKNGNELNRKNKPQNIKIQKKPGKSELRINKASLADSGEYMCKVISKLGNDSASANITIVESNEIITGMPASTEGAYVSSESPIRISVSTEGANTSSSTSTSTTGTSHLVKCAEKEKTFCVNGGECFMVKDLSNPSRYLCKCQPGFTGARCTENVPMKVQNQEKAEELYQKR
modifications: extracellular domain His tag
notes: purified His-tagged full extracellular domain of neuregulin isoform, recombinantly expressed by HEK293 cells

EC50 (read off the curve), ErbB3 phosphorylation in T47D cells (ELISA) [panel B] (ErbB3 [2]): 7 nM
B3: NRG2β full extracellular domain, His-tagged (ligand, UniProt O14511 112-405, looked up, not shown: small tags and cut ends)
chain: CYSPSLKSVQDQAYKAPVVVEGKVQGLVPAGGSSSNSTREPPASGRVALVKVLDKWPLRSGGLQREQVISVGSCVPLERNQRYIFFLEPTEQPLVFKTAFAPLDTNGKNLKKEVGKILCTDCATRPKLKKMKSQTGQVGEKQSLKCEAAAGNPQPSYRWFKDGKELNRSRDIRIKYGNGRKNSRLQFNKVKVEDAGEYVCEAENILGKDTVRGRLYVNSVSTTLSSWSGHARKCNETAKSYCVNGGVCYYIEGINQLSCKCPNGFFGQRCLEKLPLRLYMPDPKQKAEELYQKR
